# Experimental data: patent US7423115B2, “ARTS C-terminus fragments and mimetics thereof” (SimeTRA Pharm Ltd, priority 2005, dated 2008)
# Legend:
# [1] = target: T1, Bir3 domain of XIAP protein (Homo sapiens, UniProt P98170); assay: Co-immunoprecipitation of myc-tagged ARTS C-terminus with GST-Bir3 on glutathione beads in transfected, staurosporine-treated COS-7 cells; assay type: binding; details: COS-7 cells co-transfected, 1.25 μM staurosporine for 1 hr, Western blot with anti-ARTS C-terminus antibody
# T1 construct: vectors expressing either the Bir3 domain of XIAP protein fused to GST; expressed in transfected cells; host or cells: COS-7
# Experimental: COS-7 cells were transfected with 2.5 μg each of vectors expressing either the Bir3 domain of XIAP protein fused to GST or the GST alone, together with the myc-tagged ARTS C-terminus or myc-ARTS alone. After 40 hr, cells were exposed to 1.25 μM staurosporine for 1 hr and then washed in phosphate-buffered saline (PBS), scraped off the dish, pelleted, resuspended in 20 μL lysis buffer (150 mM NaCl, 50 mM Tris-HCl (pH 8), 1% NP-40, 0.5% deoxycholate acid, protease inhibitors (Mini Complete®, Roche Applied Science, Indianapolis, Ind.), and incubated on ice for 20 min.
# Lysis buffer was added to lysate containing 400 mcg total protein, to a final volume of 1 ml. 100 mcL of 20% glutathione beads was added, and the mixture was rotated at 7.5° C. overnight. Beads were centrifuged at 400×g for 2 min and washed 3 times in 1 ml RIPA buffer (0.1% SDS, 1% NP-40, 0.5% deoxycholate acid, 150 mM NaCl, 50 mM Tris-HCl (pH 8), protease inhibitors). The pellet was boiled for 5 min in an additional 25 mcL RIPA buffer and 10 mcL 4× loading buffer, then the sample was electrophoresed on an SDS poly-acrylamide gel, transferred to PVDF membrane, and subjected to Western blot using monoclonal antibody directed against the ARTS C-terminus. Blots were developed with the West Pico kit (Pierce Biotechnology, Rockford, Ill.).
# cells = assay: Induction of apoptosis by the ARTS C terminus; assay type: cell-based
# Experimental: Cells were incubated for 24 hours with no peptide (negative control) or with 100 micromolar (mcM) peptides corresponding to residues 1-9 (“pep1”), 10-18 (“pep2”), or 19-27 (“pep3”) of the ARTS C-terminus Apoptotic cells were detected using DAPI staining or TUNEL. For TUNEL assays, the cells were fixed and permeabilized. Apoptosis levels were determined using the TUNEL In situ™ cell death detection TMR kit (Roche) according to the manufacturer's protocol. All samples were coded, and experiments were performed in a blind manner.
# T1 sequence (P98170 265-330 limits assumed): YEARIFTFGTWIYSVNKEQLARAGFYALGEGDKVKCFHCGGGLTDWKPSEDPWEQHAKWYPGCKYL
sequence,measurement,setting,value
YGPSLRLLAPPGAVKGTGQEHQGQGCH [ARTS C terminus],Interaction with GST-Bir3 domain of XIAP (co-precipitation with glutathione beads),[1],co-precipitated
same,Induction of apoptosis,cells,sufficient for induction of apoptosis
